Experimental data from US20180164286A1.

What follows are substances tested against Small BiT (SB)-eIF4E, full-length (assay: cell-based or functional assay).
Sequence of Small BiT (SB)-eIF4E, full-length (chain, as listed by the source limits assumed): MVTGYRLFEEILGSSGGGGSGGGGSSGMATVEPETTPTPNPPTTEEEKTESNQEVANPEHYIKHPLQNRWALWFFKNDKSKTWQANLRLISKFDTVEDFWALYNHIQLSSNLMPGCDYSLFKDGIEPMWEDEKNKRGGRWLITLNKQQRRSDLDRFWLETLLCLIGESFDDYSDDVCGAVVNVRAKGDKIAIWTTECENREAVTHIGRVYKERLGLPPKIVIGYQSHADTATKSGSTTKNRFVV

Sequence of LB-4E-BP1 - residues 29 to end (Q13541 29-118): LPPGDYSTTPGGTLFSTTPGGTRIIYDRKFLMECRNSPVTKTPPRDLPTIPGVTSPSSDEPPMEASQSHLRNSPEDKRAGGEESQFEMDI

Substance | fold-change of split-luciferase luminescence, rapamycin (50 nM, 1 h) over vehicle; HEK293 cells [fold]
4E-BP1 with C-terminal LB at residue 85 (from UniProt Q13541 1-85) | 0.89
4E-BP1 with C-terminal LB at residue 95 (from UniProt Q13541 1-95) | 0.98
Full-length 4E-BP1 with C-terminal LB (from UniProt Q13541 2-118) | 1.18
LB-4E-BP1 - residues 29 to end (from UniProt Q13541 29-118) | 0.89
